In series [1] the target is T1, RecA wild type (Escherichia coli, UniProt P0A7G6 2-353). The series can be described thus: CE-LIFP; ATP, 10 mM Mg2+; six complexes (1-6 RecA), mainly 1:4 DNA:RecA at 1.0 mM ATP; 20 mM Tris-HCl pH 7.4, 10 mM Mg2+, 10 nM oligo, 0-3.0 uM RecA, 37 C 10 min; CE in 25 mM Tris, 192 mM glycine, 0.5 mM Ca2+, pH 8.3, room temperature. Particulars: protein: recombinant; label: 5'-TMR.

The target of series [2] is T1, RecA wild type. The series can be described thus: CE-LIFP; 0.01-3.0 mM ATP; 16 uM RecA; five complexes; 20 mM Tris-HCl pH 7.4, 10 mM Mg2+, 10 nM oligo, 0-3.0 uM RecA, 37 C 10 min; CE in 25 mM Tris, 192 mM glycine, 0.5 mM Ca2+, pH 8.3, room temperature. Particulars: protein: recombinant; label: 5'-TMR.
The target in series [3] is T1, RecA wild type. The series can be described thus: CE-LIFP; ATP, 10 mM Mg2+; 3.0 uM RecA; mainly unsaturated filament; 20 mM Tris-HCl pH 7.4, 10 mM Mg2+, 10 nM oligo, 0-3.0 uM RecA, 37 C 10 min; CE in 25 mM Tris, 192 mM glycine, 0.5 mM Ca2+, pH 8.3, room temperature. To be noted: protein: recombinant; label: 5'-TMR.
Series [4] deals with T1, RecA wild type. The series can be described thus: CE-LIFP; 0.1 mM ATPgS, 10 mM Mg2+; 3.0 uM RecA; saturated filament; 20 mM Tris-HCl pH 7.4, 10 mM Mg2+, 10 nM oligo, 0-3.0 uM RecA, 37 C 10 min; CE in 25 mM Tris, 192 mM glycine, 0.5 mM Ca2+, pH 8.3, room temperature. Particulars: protein: recombinant; label: 5'-TMR.
Series [5] deals with T1, RecA wild type. The series can be described thus: electron microscopy; 0.1 mM ATPgS; 3.0 uM RecA, 300 nM DNA; saturated filament; 20 mM Tris-HCl pH 7.4, 10 mM Mg2+, 10 nM oligo, 0-3.0 uM RecA, 37 C 10 min; CE in 25 mM Tris, 192 mM glycine, 0.5 mM Ca2+, pH 8.3, room temperature. To be noted: protein: recombinant.
The target in series [6] is T1, RecA wild type. The series can be described thus: CE-LIFP; 0.01-3.0 mM ATP; 16 uM RecA; four complexes; 20 mM Tris-HCl pH 7.4, 10 mM Mg2+, 10 nM oligo, 0-3.0 uM RecA, 37 C 10 min; CE in 25 mM Tris, 192 mM glycine, 0.5 mM Ca2+, pH 8.3, room temperature. To be noted: protein: recombinant; label: 5'-TMR.

T1 sequence (P0A7G6 2-353): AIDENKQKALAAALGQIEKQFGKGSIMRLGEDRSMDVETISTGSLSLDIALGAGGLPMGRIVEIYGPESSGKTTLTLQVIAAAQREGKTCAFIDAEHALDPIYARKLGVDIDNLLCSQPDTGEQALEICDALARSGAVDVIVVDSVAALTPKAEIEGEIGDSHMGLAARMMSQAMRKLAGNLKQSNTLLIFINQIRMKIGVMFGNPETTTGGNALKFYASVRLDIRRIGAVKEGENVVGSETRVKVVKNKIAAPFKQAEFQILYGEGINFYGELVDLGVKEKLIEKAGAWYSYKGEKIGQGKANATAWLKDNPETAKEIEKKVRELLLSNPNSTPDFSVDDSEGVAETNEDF

Consider TTTTTTTTTTTTTTTTTT (ssDNA) [TMR-T18], for which the binding result in series [1] is listed as “binds”. On to TTTTTTTTTTTTTTT (ssDNA) [TMR-T15], for which the binding result in series [2] is “binds”.

B1: TMR-ss175mer (ssDNA)
DNA: TCGTCTTTGGTATGTAGGTGGTCAACAATTTTAATTGCAGGGGCTTCGGCCCCTTACTTGAGGATAAATTATGTCTAATATTCAAACTGGCGCCGAGCGTATGCCGCATGACCTTTCCCATCTTGGCTTCCTTGCTGGTCAGATTGGTCGTCTTATTACCATTTCAACTACTCCG
Turning to B1, in series [3], the binding result is recorded as “binds”.

B2: TMR-ss83mer (ssDNA)
DNA: TTTCCTACCTTAAGATCCTTCCAGTCTCCGCCGGCCAGTGTTACCCTTAGAGCTCATACCATTCGCCAATTTCTTCGCACGTT
Turning to B2, in series [4], the binding result is “binds”.

B3: ss83mer (ssDNA)
DNA: TTTCCTACCTTAAGATCCTTCCAGTCTCCGCCGGCCAGTGTTACCCTTAGAGCTCATACCATTCGCCAATTTCTTCGCACGTT
As for B3, the binding result in series [5] is “binds”. For the molecule TTTTTTTTTTTT (ssDNA) [TMR-T12], the binding result in series [6] is given as “binds”.

These data come from PMC5240526, “ATPase activity tightly regulates RecA nucleofilaments to promote homologous recombination”.
